B1: library; numbered along this chain (parent)
chain: MAAAGGARLLRAASAVLGGPAGRWLHHAGSRAGSSGLLRNRGPGGSAEASRSLSVSARARSSSEDKITVHFINRDGETLTTKGKVGDSLLDVVVENNLDIDGFGACEGTLACSTCHLIFEDHIYEKLDAITDEENDMLDLAYGLTDRSRLGCQICLTKSMDNMTVRVPETVADARQSIDVGKTS

Variants of: B1
Test: scaled log2 fold change in cell abundance, elesclomol vs control (0 = silent mean, 1 = nonsense mean) (scaled log2 ratio); higher = higher viability under elesclomol (loss of FDX1 cuproptosis function)
Conditions: glucose 10 mM
[1] = with ABC1 FDX1 KO, elesclomol 5 nM, 14 days
[2] = with HEK293T FDX1 KO, elesclomol 40 nM, 11 days
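Also: variant abundance is its share of total variant reads in each endpoint sample, from next-generation sequencing of the integrated ORF PCR-amplified out of genomic DNA.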

Variant | scaled log2 fold change [1] | scaled log2 fold change [2]
G76R | -0.0307 | –
G76F | -0.264 | -0.273
G76S | 0.164 | –
G76N | -0.0936 | -0.272
G76K | -0.353 | -0.04
G76L | 0.0165 | -0.41
G76T | 0.217 | –
G76I | 0.0447 | -0.0276
G76C | 0.377 | 0.277
G76A | -0.303 | -0.122
G76P | 0.585 | 0.000649
G76D | 0.21 | 1.47
G76E | -0.688 | 0.0105
G76Y | -0.241 | 0.296
G76M | 0.321 | -0.269
G76V | 0.401 | -0.808
G76H | 0.293 | -0.385
D75S | -0.0315 | –
D75L | 0.0705 | -0.00446
D75I | -0.502 | -0.38
D75T | -0.752 | 0.0498
D75Q | 0.457 | –
D75C | -0.0427 | -0.175
D75R | -0.271 | -0.0753
D75E | 0.271 | 0.128

Variant | scaled log2 fold change [1] | scaled log2 fold change [2]
D75A | -0.423 | 0.113
D75W | 0.241 | -0.146
D75Y | -0.306 | –
D75N | -0.329 | 0.364
D75F | -0.548 | 0.355
D75V | -0.11 | -0.372
D75M | -0.0398 | -0.59
D75K | -0.678 | –
D75H | 0.273 | –
K84I | 0.197 | 1.03
K84F | 0.195 | 0.127
K84N | 0.0469 | 0.28
K84Q | 0.0208 | -0.794
K84L | 0.349 | -0.439
K84G | -0.452 | -0.00112
K84D | -0.0908 | 0.0439
K84M | 0.138 | –
K84A | -0.0494 | 0.375
K84E | 0.218 | -0.39
K84C | 0.225 | 0.851
K84P | 0.11 | 1.21
K84H | 0.0255 | 0.273
N73Q | -0.00176 | 0.207
N73S | 0.237 | –
N73M | -0.526 | 0.0726

Variant | scaled log2 fold change [1] | scaled log2 fold change [2]
N73K | 0.136 | 1.39
N73R | 0.219 | -0.254
N73D | 0.282 | -0.23
N73P | 0.17 | -0.147
N73Y | 0.218 | -0.741
N73W | -0.0509 | –
N73E | 0.311 | 0.823
N73A | 0.491 | -0.233
N73C | -0.441 | -0.308
N73H | -0.0805 | -0.159
N73V | 0.102 | 0.976
N73F | 0.238 | -0.334
N73L | -0.0741 | 0.0359
N73T | -0.183 | –
N73I | -1.24 | –
N73G | 0.582 | 0.401
G83Q | 0.455 | 0.716
G83S | 0.0697 | -1.34
G83W | 0.275 | -0.151
G83F | 0.576 | 0.231
G83D | 0.697 | 0.804
G83C | 0.0146 | 0.00891
G83I | 0.557 | 0.712
G83E | 0.881 | 0.975
G83K | 0.72 | 0.427

Variant | scaled log2 fold change [1] | scaled log2 fold change [2]
G83N | 0.304 | -0.106
G83H | 0.285 | -0.572
G83M | 0.483 | 0.859
G83A | 0.184 | -0.672
G83T | 0.0201 | -0.4
G83Y | 0.73 | 0.383
G83L | 0.777 | 1.06
G83P | 0.126 | -0.345
G83R | 0.756 | 0.39
G83V | 0.0583 | 0.224
T78H | -0.378 | 1.01
T78W | -0.127 | -0.938
T78P | -0.0243 | -0.366
T78M | -0.54 | -0.0932
T78V | 0.108 | -0.249
T78I | -0.229 | –
T78G | -0.0398 | 0.179
T78C | -0.0788 | –
T78Q | 0.0403 | -0.00407
T78N | -0.0446 | -0.273
T78L | -0.709 | 0.584
T78Y | -0.386 | -0.209
T78R | -0.905 | -0.932
T78K | 0.447 | -1.09
T78S | 0.0645 | 0.487

Variant | scaled log2 fold change [1] | scaled log2 fold change [2]
T78D | 0.00307 | -0.427
T78E | 0.171 | 2.14
R74N | -1.08 | 1.31
R74W | 0.234 | –
R74L | 0.361 | -0.577
R74H | -0.0392 | -0.565
R74M | -0.486 | 0.445
R74S | 0.363 | 0.881
R74A | -0.255 | -0.8
R74T | -0.0213 | -0.108
R74I | -0.228 | 1.14
R74F | 0.533 | -0.0248
R74G | 0.597 | -0.839
R74D | 0.558 | 1.28
R74V | 0.486 | –
R74E | -0.261 | –
R74Y | -0.0737 | 0.186
R74C | 0.324 | 0.937
R74P | 0.11 | –
R74Q | 0.323 | -0.599
T80H | 0.295 | –
T80E | 0.301 | -0.0351
